{
  "source": "patent US20210139579A1",
  "binders": {"B1": {"name": "R12-G5-PNU (antibody, V domains shown)", "VH": "QEQLVESGGRLVTPGGSLTLSCKASGFDFSAYYMSWVRQAPGKGLEWIATIYPSSGKTYYATWVNGRFTISSDNAQNTVDLQMNSLTAADRATYFCARDSYADDGALFNIWGPGTLVTISS", "VL": "ELVLTQSPSVSAALGSPAKITCTLSSAHKTDTIDWYQQLQGEAPRYLMQVQSDGSYTKRPGVPDRFSGSSSGADRYLIIPSVQADDEADYYCGADYIGGYVFGGGTQLTVTG", "modifications": "EDA-PNU-159682 derivative on the C-terminal glycine (G5-PNU joined by sortase)"}, "B2": {"name": "XBR1-402-G5-PNU (antibody, V domains shown)", "VH": "QEQQKESGGGLFKPTDTLTLTCTASGFDISSYYMSWVRQAPGNGLEWIGAIGISGNAYYASWAKSRSTITRNTNLNTVTLKMTSLTAADTATYFCARDHPTYGMDLWGPGTLVTVSS", "VL": "SYELTQLPSVSVSLGQTARITCEGNNIGSKAVHWYQQKPGLAPGLLIYDDDERPSGVPDRFSGSNSGDTATLTISGAQAGDEADYYCQVWDSSAYVFGGGTQLTVTG", "modifications": "EDA-PNU-159682 derivative on the C-terminal glycine (G5-PNU joined by sortase)"}, "B3": {"name": "Top43-G5-PNU (adc204) (antibody, V domains shown)", "VH": "QSLEESGGRLVTPGTPLTLTCTVSGFSLSSYWMSWVRQAPGKGLEWIGAIYGSGNTYYASWAKGRFTISKTSTTVDLKITSPTTEDTATYFCARDVHSTATDLWGPGTLVTISS", "VL": "SYELTQLPSVSVSLGQTARITCGGNNIGSKAVNWYQQKPGLAPGLLIYNDDERPSGVPDRFSGSNSGDTATLTISGAQAGDEADYYCQLWDSSAGAYVFGGGTQLTVTG", "modifications": "EDA-PNU-159682 derivative on the C-terminal glycine (G5-PNU joined by sortase)"}, "B4": {"name": "ERR1-301-G5-PNU (adc200) (antibody, V domains shown)", "VH": "QEQLEESGGGLVTPGGSLTLTCTASGFTISTYHMSWVRQAPGKGLEWIGSIYAGSGSTYYASWVNGRFTISSNTTQNTVSLQMNSLTVADTATYFCARDHPSYGMDLWGPGTLVTVSS", "VL": "B3 VL with N26S, N49D, G63A, G80E, G95V", "modifications": "EDA-PNU-159682 derivative on the C-terminal glycine (G5-PNU joined by sortase)"}},
  "key": {"[1]": {"target": "human ROR1 (hROR1) on the cell surface (human) (UniProt Q01973)", "sequence (Q01973 30-937)": "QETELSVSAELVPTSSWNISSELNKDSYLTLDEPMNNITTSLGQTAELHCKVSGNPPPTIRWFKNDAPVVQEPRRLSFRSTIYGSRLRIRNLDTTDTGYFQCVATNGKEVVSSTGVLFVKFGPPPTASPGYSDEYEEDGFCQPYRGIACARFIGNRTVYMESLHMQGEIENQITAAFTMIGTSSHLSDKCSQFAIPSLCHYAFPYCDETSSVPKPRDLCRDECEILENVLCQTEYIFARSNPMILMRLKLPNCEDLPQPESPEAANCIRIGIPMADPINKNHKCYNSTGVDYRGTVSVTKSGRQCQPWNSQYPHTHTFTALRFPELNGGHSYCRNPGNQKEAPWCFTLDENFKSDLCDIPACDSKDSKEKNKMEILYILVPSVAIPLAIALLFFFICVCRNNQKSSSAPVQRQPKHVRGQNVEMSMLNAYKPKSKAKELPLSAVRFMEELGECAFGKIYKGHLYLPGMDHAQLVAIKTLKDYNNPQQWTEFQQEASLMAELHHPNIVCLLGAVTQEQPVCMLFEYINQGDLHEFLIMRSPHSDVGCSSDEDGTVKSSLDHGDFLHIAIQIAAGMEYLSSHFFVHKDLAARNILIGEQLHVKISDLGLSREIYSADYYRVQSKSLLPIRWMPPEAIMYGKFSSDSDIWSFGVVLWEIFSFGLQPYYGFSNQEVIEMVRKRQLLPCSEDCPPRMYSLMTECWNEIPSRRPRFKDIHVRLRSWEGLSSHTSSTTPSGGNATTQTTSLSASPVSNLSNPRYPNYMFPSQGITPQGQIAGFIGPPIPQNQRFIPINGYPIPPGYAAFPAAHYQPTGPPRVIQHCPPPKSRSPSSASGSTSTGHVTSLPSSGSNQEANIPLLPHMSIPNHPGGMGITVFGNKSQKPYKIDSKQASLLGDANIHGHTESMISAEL", "assay": "cell-based or functional assay"}, "[2]": {"target": "human ROR1 (hROR1) on the cell surface (human) (UniProt Q01973)", "assay": "cell-based or functional assay", "remark": "listed apart in the source"}},
  "note": "Residue numbers refer to the chain shown, from its start. Read-outs that look alike come from different tables or passages of the source.",
  "data": [
    {"binder": "B1", "values": [
      {"measurement": "IC50, in vitro cell killing of 697 cells", "setting": "[1]", "result": 100, "unit": "nM"},
      {"measurement": "IC50, in vitro cell killing of HS 578T cells", "setting": "[1]", "result": 3.5, "unit": "µg/mL"},
      {"measurement": "IC50, in vitro cell killing of HT-29 cells", "setting": "[1]", "result": 10.3, "unit": "µg/mL"},
      {"measurement": "IC50, in vitro cell killing of MDA-MB-468 cells", "setting": "[1]", "result": 3.96, "unit": "µg/mL"},
      {"measurement": "IC50, in vitro cell killing of 697 cells", "setting": "[2]", "result": 0.873, "unit": "µg/mL"}
    ]},
    {"binder": "B2", "values": [
      {"measurement": "IC50, in vitro cell killing of A549 cells", "setting": "[1]", "result": 177, "unit": "µg/mL"},
      {"measurement": "IC50, in vitro cell killing of HS 578T cells", "setting": "[1]", "result": 1.4, "unit": "µg/mL"},
      {"measurement": "IC50, in vitro cell killing of HT-29 cells", "setting": "[1]", "result": 23.3, "unit": "µg/mL"},
      {"measurement": "IC50, in vitro cell killing of hROR1-overexpressing EMT-6 cells", "setting": "[1]", "result": 1.7, "unit": "nM"}
    ]},
    {"binder": "B3", "values": [
      {"measurement": "IC50, in vitro cell killing of 697 cells", "setting": "[1]", "result": 0.314, "unit": "µg/mL"},
      {"measurement": "IC50, in vitro cell killing of A549 cells", "setting": "[1]", "result": 109, "unit": "µg/mL"},
      {"measurement": "IC50, in vitro cell killing of HS 578T cells", "setting": "[1]", "result": 0.707, "unit": "µg/mL"},
      {"measurement": "IC50, in vitro cell killing of HT-29 cells", "setting": "[1]", "result": 23.1, "unit": "µg/mL"},
      {"measurement": "IC50, in vitro cell killing of MDA-MB-468 cells", "setting": "[1]", "result": 0.463, "unit": "µg/mL"}
    ]},
    {"binder": "B4", "values": [
      {"measurement": "IC50, in vitro cell killing of 697 cells", "setting": "[1]", "result": 0.592, "unit": "µg/mL"}
    ]}
  ]
}
